Tested on: Cre recombinase (bacteriophage P1 ?)
Experiment: cell_activity
Details: excision of reprogramming cassette in iPSC; typically 50% or more of clones; verified by Southern blot and PCR

With “loxP sites flanking reprogramming cassette (p4FLR)” the activity (% clones with EGFP loss) was over 50.
